# Source: paper PMC11189300, “Structure of the human KMN complex and implications for regulation of its assembly” (Nature Structural & Molecular Biology, 2024)
# T1: Mis12 complex (Mis12C), full length: MIS12, PMF1, NSL1, DSN1 (human, UniProt Q9H081 1-205; Q6P1K2 1-205; Q96IY1 1-281; Q9H410 1-356)
# T1 construct: MIS12, human, subunit of the Mis12 complex; PMF1, human, subunit of the Mis12 complex; NSL1, human, subunit of the Mis12 complex; DSN1, human, subunit of the Mis12 complex (DSN1^SORT-HIS); In BLI one partner was biotinylated by sortase (GGGG-biotin peptide); also called Mis12C^WT; wild-type Mis12C; source: Tnao38 insect cells (baculovirus from pBIG1A), purified (Talon, SEC); copies: + + +
# T1 sequence (looked up) 1: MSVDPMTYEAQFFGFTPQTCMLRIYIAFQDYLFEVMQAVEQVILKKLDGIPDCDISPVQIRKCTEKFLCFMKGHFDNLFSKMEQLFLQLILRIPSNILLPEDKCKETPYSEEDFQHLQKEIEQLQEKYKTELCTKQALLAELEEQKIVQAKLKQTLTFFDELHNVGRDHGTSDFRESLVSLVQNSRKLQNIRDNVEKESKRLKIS
# T1 sequence (looked up) 2: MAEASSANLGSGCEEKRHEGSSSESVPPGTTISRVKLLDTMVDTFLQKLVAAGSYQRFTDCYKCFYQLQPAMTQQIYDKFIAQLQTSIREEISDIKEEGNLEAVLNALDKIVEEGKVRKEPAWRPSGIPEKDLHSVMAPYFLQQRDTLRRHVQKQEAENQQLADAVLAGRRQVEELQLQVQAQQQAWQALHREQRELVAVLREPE
# T1 sequence (looked up) 3: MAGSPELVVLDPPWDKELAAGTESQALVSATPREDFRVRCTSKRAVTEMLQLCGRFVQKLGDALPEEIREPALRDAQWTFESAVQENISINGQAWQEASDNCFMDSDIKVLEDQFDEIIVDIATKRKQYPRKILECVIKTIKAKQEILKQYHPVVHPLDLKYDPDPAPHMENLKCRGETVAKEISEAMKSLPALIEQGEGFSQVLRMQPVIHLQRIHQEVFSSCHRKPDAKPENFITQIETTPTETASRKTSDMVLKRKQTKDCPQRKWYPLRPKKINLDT
# T1 sequence (looked up) 4: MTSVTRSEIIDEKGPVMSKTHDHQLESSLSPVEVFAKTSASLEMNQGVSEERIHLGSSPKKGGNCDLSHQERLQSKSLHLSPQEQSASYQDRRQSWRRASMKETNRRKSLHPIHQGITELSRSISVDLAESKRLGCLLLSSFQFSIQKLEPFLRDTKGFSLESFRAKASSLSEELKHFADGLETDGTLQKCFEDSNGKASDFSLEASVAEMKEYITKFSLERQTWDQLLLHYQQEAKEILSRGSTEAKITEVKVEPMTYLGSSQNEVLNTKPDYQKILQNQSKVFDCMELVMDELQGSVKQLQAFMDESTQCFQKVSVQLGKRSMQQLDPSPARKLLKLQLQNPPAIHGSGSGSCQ
# T2: DSN1 (subunit of Mis12C in the KMN structure) (human, UniProt Q9H410 1-356)
# T2 construct: DSN1, human; also called DSN1^SORT-HIS; source: Tnao38 insect cells (baculovirus), co-expressed in Mis12C, purified (Talon, SEC)
# T2 sequence (looked up): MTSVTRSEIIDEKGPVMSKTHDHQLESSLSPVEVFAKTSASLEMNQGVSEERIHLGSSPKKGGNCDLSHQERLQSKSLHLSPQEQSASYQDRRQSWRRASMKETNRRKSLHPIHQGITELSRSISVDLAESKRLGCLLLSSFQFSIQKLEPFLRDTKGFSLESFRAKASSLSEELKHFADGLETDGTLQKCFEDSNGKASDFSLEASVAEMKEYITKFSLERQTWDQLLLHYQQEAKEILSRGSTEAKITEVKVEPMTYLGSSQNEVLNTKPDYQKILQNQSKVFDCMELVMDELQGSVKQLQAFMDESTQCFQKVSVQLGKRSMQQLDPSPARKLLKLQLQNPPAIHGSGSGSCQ
# T3: NSL1 (subunit of Mis12C in the KMN structure) (human, UniProt Q96IY1 1-281)
# T3 construct: NSL1, human; source: Tnao38 insect cells (baculovirus), co-expressed in Mis12C, purified (Talon, SEC)
# T3 sequence (looked up): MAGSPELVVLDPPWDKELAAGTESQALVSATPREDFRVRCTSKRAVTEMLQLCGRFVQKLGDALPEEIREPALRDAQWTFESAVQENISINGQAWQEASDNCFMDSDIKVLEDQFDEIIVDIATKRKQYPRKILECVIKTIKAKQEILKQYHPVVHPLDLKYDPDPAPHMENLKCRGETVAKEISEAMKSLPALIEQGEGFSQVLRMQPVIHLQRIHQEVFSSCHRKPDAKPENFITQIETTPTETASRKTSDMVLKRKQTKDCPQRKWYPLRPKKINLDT
# T4: Mis12C^M5 (NSL1 I216A) (human, UniProt Q9H081 1-205; Q6P1K2 1-205; Q96IY1 1-281; Q9H410 1-356, I216A)
# T4 construct: MIS12, human; PMF1, human; NSL1, human, with I216A on the α5 helix; DSN1, human; source: Tnao38 insect cells (baculovirus), purified (Talon, SEC); copies: + + +
# T4 sequence (looked up) 1: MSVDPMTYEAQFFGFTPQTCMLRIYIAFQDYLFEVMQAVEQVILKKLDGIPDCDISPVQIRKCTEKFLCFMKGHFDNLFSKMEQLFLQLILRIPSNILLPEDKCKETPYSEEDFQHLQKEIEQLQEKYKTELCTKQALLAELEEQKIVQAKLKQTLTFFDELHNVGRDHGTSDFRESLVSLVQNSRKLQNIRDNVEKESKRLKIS
# T4 sequence (looked up) 2: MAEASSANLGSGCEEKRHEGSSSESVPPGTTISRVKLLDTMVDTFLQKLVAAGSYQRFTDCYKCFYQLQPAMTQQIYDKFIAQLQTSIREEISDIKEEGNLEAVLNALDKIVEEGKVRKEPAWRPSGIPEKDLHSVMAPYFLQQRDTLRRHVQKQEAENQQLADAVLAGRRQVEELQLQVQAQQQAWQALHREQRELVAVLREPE
# T4 sequence (looked up) 3: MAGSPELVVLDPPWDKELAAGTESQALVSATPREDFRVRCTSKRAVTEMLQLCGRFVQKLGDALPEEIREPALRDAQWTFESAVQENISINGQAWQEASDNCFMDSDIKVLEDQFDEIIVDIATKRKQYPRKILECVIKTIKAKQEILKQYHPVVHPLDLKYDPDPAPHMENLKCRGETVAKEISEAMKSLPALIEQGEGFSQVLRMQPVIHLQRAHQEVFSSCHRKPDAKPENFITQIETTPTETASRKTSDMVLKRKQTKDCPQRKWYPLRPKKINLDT
# T4 sequence (looked up) 4: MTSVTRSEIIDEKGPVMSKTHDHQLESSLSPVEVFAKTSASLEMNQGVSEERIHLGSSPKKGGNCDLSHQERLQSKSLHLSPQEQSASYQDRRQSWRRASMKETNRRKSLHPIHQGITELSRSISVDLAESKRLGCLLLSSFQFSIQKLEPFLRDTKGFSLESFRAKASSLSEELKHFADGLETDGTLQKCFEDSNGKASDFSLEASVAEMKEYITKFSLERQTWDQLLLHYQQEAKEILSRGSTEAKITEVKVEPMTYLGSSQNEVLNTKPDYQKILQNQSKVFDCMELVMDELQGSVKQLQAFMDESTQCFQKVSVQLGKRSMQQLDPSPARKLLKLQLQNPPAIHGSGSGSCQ
# Tests used:
# Settings in all cases: both partners purified
# [1] = biological target: T1, Mis12 complex (Mis12C), full length: …; test: ITC; PEAQ-ITC; 50 mM HEPES pH 8.0, 150 mM NaCl, 1 mM TCEP; 19 injections; one-site binding fit
# [2] = biological target: T1, Mis12 complex (Mis12C), full length: …; test: BLI; Octet SA biosensors loaded with the biotinylated ligand, analyte at different concentrations; 25 °C; 50 mM HEPES pH 8.0, 150 mM NaCl, 2 mM TCEP, 0.05% Tween-20; which partner was loaded is not given
# [3] = biological target: T1, Mis12 complex (Mis12C), full length: …; test: cryo-EM structure; eight-subunit KMN (full-length Mis12C, SPC24 109–197/SPC25 92–224, ZWINT, KNL1 2,021–2,342), 0.3 mg/ml with 0.003% Triton; reconstruction at 4.5 Å; model fitted from known structures and AF2 predictions and refined against the map
# [4] = biological target: T2, DSN1 (subunit of Mis12C in the KMN …); test: as above
# [5] = biological target: T3, NSL1 (subunit of Mis12C in the KMN …); test: as above
# Mis12C^M5 (NSL1 I216A) = biological target: T4, Mis12C^M5 (NSL1 I216A); test: ITC; PEAQ-ITC; 50 mM HEPES pH 8.0, 150 mM NaCl, 1 mM TCEP; 19 injections; one-site binding fit
Binder,Kd [1] [nM],Kd [2] [nM],binding result [3],binding result [4],binding result [5],fold reduction of binding affinity against the wild-type pair (Mis12C^M5 (NSL1 I216A)) [fold]
"KNL1 residues 2,026–2,342 (domain or fragment, human, UniProt Q8NG31 2026-2342, looked up, numbering of isoform 1 of the CASC5 gene; also called KNL1^WT; source: E. coli BL21(DE3)-Codon-plus-RIPL, purified (glutathione-agarose, TEV cleavage, SEC)) SAQNEREKLQIKIDEMDKILKKIDNCLTEMETETKNLEDEEKNNPVEEWDSEMRAAEKELEQLKTEEEELQRNLLELEVQKEQTLAQIDFMQKQRNRTEELLDQLSLSEWDVVEWSDDQAVFTFVYDTIQLTITFEESVVGFPFLDKRYRKIVDVNFQSLLDEDQAPPSSLLVHKLIFQYVEEKESWKKTCTTQHQLPKMLEEFSLVVHHCRLLGEEIEYLKRWGPNYNLMNIDINNNELRLLFSSSAAFAKFEITLFLSAYYPSVPLPSTIQNHVGNTSQDDIATILSKVPLENNYLKNVVKQIYQDLFQDCHFYH",~1.6,~2,–,–,–,–
"SPC24_(109–197)/SPC25_(92–224) dimer (complex, human, SPC25, human, residues 92–224 (RWD domain); GST was cleaved off with 3C protease; also called SPC24/SPC25 dimer; source: E. coli BL21(DE3)-codon-plus-RIPL, purified (glutathione-agarose, 3C protease, SEC)) chain 1: EELKEIEADLERQEKEVDEDTTVTIPSAVYVAQLYHQVSKIEWDYECEPGMVKGIHHGPSVAQPIHLDSTQLSRKFISDYLWSLVDTEW chain 2: KKQELEVLTANIQDLKEEYSRKKETISTANKANAERLKRLQKSADLYKDRLGLEIRKIYGEKLQFIFTNIDPKNPESPFMFSLHLNEARDYEVSDSAPHLEGLAEFQENVRKTNNFSAFLANVRKAFTATVYN",–,–,binds,binds,binds,–
"full-length SPC24/SPC25 (complex, human, SPC24, human; SPC25, human; GST was cleaved off with 3C protease; also called SPC24/SPC25 heterodimer; SPC24/SPC25 pair; source: E. coli BL21(DE3)-codon-plus-RIPL, purified (glutathione-agarose, 3C protease, SEC)) chain 1: MAAFRDIEEVSQGLLSLLGANRAEAQQRRLLGRHEQVVERLLETQDGAEKQLREILTMEKEVAQSLLNAKEQVHQGGVELQQLEAGLQEAGEEDTRLKASLLQLTRELEELKEIEADLERQEKEVDEDTTVTIPSAVYVAQLYHQVSKIEWDYECEPGMVKGIHHGPSVAQPIHLDSTQLSRKFISDYLWSLVDTEW chain 2: MVEDELALFDKSINEFWNKFKSTDTSCQMAGLRDTYKDSIKAFAEKLSVKLKEEERMVEMFLEYQNQISRQNKLIQEKKDNLLKLIAEVKGKKQELEVLTANIQDLKEEYSRKKETISTANKANAERLKRLQKSADLYKDRLGLEIRKIYGEKLQFIFTNIDPKNPESPFMFSLHLNEARDYEVSDSAPHLEGLAEFQENVRKTNNFSAFLANVRKAFTATVYN",~46,–,–,–,–,~15
